Target: α2β1 integrin (human (endogenous in HT1080)) (UniProt P17301)
Chain of UniProt P17301 (P17301 30-1181, chain 1 of 2): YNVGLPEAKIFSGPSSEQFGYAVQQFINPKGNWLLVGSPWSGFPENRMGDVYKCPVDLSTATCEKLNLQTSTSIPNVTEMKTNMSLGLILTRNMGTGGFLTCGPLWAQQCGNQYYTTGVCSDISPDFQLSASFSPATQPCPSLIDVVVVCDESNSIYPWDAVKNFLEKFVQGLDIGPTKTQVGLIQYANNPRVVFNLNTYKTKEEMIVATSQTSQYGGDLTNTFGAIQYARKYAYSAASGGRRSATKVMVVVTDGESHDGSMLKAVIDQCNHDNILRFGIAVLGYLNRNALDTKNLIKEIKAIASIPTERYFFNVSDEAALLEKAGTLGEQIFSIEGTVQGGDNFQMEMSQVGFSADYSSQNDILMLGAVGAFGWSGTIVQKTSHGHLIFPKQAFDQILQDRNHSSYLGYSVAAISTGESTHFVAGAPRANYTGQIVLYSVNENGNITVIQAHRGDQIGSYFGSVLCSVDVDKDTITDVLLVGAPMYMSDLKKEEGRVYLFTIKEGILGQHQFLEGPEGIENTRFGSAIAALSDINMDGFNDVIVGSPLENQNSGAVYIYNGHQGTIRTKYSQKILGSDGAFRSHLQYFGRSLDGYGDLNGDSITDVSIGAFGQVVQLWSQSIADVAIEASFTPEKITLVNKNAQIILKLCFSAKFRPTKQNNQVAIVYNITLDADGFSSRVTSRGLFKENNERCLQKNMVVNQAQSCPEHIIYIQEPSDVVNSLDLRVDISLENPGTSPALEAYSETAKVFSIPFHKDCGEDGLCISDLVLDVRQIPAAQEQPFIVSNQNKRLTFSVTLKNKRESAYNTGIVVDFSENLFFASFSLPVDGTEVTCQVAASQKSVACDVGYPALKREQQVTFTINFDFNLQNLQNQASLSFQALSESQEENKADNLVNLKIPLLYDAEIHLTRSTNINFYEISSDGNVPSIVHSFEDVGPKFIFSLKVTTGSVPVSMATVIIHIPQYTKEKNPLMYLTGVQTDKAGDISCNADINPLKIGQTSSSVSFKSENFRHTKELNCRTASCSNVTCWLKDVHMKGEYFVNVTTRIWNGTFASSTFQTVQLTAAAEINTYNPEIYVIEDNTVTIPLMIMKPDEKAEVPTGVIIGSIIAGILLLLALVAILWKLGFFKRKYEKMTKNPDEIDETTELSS
Chain of UniProt P17301 (P05556 21-798, chain 2 of 2, further chain): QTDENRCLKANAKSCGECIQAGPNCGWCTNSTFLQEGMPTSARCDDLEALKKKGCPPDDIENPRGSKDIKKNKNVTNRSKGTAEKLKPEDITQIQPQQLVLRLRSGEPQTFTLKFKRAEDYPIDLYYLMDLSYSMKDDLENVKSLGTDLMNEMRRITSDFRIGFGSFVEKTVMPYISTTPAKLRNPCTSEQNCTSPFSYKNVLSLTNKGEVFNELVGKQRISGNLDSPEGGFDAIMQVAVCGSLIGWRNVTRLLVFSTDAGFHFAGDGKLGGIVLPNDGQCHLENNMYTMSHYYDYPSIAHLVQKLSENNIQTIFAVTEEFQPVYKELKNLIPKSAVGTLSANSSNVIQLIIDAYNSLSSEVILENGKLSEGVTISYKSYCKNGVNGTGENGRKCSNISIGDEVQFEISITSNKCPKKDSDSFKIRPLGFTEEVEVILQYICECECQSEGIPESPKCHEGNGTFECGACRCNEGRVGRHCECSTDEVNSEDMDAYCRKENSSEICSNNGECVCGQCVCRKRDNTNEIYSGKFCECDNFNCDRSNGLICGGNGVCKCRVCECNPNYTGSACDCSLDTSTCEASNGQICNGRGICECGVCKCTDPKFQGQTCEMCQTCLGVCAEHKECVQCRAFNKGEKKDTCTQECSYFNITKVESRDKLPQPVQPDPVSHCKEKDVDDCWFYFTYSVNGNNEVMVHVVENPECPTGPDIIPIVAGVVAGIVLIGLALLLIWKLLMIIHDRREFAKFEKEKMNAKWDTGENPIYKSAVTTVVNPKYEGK

| adhesion of HT1080 cells pre-incubated with 10 μg/mL mAb13 (anti-β1) on Fmoc-FF/S/GFOGER hydrogel [%] | adhesion of HT1080 cells pre-incubated with 10 μg/mL mAb13 (anti-β1) on RTC-modified hydrogel [%] | Substance |
| --- | --- | --- |
| 23 |  | GFOGER peptide |
|  | 15 | Rat Tail Collagen (from UniProt P02454 152-1207; P02466 86-1125) (natural protein) |

Reference: paper PMC9140497
